In patent US20240034792A1 (HARBOUR BIOMED SHANGHAI, published 2024):

Experiments:
[1] = target: T1, Cynomolgus monkey PD-1-His protein (AcroBiosystems, # PD1-05223) (cynomolgus monkey, UniProt B0LAJ3 25-170); experiment: ELISA, plate-coated cynomolgus monkey PD-1-His
T1 construct: Bought reagent, coated on the ELISA plate; also called cynomolgus monkey PD-1 protein
Procedure: Cynomolgus monkey PD-1-His protein (AcroBiosystems, # PD1-05223) was diluted to 2 μg/mL with PBS, added to a 96-well plate (Corning, #9018) at 100 μL/well, and incubated at 4° C. overnight. After the liquid was discarded, the plate was washed 3 times with PBST, blocked by adding 250 μL of 2% BSA, and incubated at room temperature for 1 h. The blocking buffer was discarded, and the plate was washed 3 times with PBST buffer (pH 7.4, containing 0.05% Tween-20). The test antigen-binding protein was diluted to 5 μg/mL, and added at 100 μL/well. The plate was incubated at 37° C. for 1 h. After the plate was washed 3 times with PBST buffer (pH 7.4, containing 0.05% Tween-20), a 4000-fold diluted goat anti-human HRP secondary antibody (Invitrogen, #A18805) was added. The plate was incubated at 37° C. for 1 h. After the plate was washed, TMB (Biopanda, # TMB-S-003) was added at 100 μL/well. The plate was left away from light at room temperature for 5 min. The reactions were terminated by adding 50 μL of stop buffer (BBI life sciences, #E661006-0200) to each well, and the absorbance values at 450 nm (OD450) were measured using a microplate reader (PerkinElemer, #Enspire).

[2] = target: T2, Human PD-1 expressed on CHO-K1 cells (CHO-K1/hPD-1) (human, UniProt Q15116 25-288); experiment: FACS, CHO-K1-hPD-1 cells
T2 construct: whole, on cells; also called CHO-K1 cells overexpressing human PD-1
T2 sequence (Q15116 25-288): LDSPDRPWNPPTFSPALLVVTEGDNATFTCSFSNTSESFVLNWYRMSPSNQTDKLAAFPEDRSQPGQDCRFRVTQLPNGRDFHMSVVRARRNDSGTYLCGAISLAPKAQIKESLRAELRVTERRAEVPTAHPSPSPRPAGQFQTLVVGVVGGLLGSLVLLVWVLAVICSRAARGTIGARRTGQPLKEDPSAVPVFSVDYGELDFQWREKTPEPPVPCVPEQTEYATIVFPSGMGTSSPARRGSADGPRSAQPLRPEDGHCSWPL
Procedure: In order to investigate the binding activity of the CD73×PD-1 bispecific antibody to human CD73 and PD-1, the binding assay at the cellular level was performed using a CHO-K1 cell strain overexpressing human CD73 or PD-1 (CHO-K1-hCD73 or CHO-K1-hPD-1). Briefly, the CHO-K1-hCD73 and CHO-K1-hPD-1 cells were digested and resuspended in an F-12K complete medium, and the cell density was adjusted to 1×10⁶ cells/mL. The cells were seeded in a 96-well V-bottom plate (Corning, #3894) at 100 μL/well, followed by the addition at 100 μL/well and centrifugation at 500 g at 4° C. for 5 min, and then the supernatant was discarded. Antibodies were 3-fold diluted to a maximum final concentration of 50 nM, and a total of 8 concentrations were set. 100 μL of the diluted antibodies was added to each well, and the cells were incubated at 4° C. for 1 h away from light. Thereafter, the cells in each well were rinsed twice with 100 μL of pre-cooled PBS, and centrifuged at 500 g at 4° C. for 5 min, and then the supernatant was discarded. Then 100 μL of a fluorescent secondary antibody (goat anti-human IgG (H+L) secondary antibody, Alexa Fluor® 488 conjugate, Invitrogen, Cat #A11013, 1:1000) was added to each well. […] Finally, the cells in each well were resuspended in 200 μL of pre-cooled PBS, and the fluorescence signal values were read using a BD FACS CANTOII.

[3] = target: T3, Human PD-1-His protein (ACROBiosystems, # PD1-H5221) (human, UniProt Q15116 25-167); experiment: ELISA, plate-coated human PD-1-His
T3 construct: Bought reagent, coated on the ELISA plate; also called human PD-1 protein; human PD-1 antigen; not shown: His tag
T3 sequence (Q15116 25-167 limits assumed): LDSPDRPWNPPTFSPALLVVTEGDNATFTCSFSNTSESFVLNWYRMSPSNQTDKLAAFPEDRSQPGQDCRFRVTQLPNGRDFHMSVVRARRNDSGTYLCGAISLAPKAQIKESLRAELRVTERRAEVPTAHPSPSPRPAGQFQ
Procedure: Human PD-1-His protein (ACROBiosystems, # PD1-H5221) was diluted to 2 μg/mL with PBS, added to a 96-well plate (Corning, cat#9018) at 100 μL/well, and incubated at 4° C. overnight. After the liquid was discarded, the plate was washed 3 times with PBST buffer (pH 7.4, containing 0.05% Tween-20), and 250 μL of 2% BSA blocking buffer was added. The plate was incubated at 37° C. for 1 h. The blocking buffer was discarded, and the plate was washed 3 times with PBST buffer (pH 7.4, containing 0.05% Tween-20). The test antigen-binding protein was 5-fold diluted in sequence at an initial concentration of 100 nM for a total of 8-10 concentration gradients, and added at 100 μL/well. The plate was incubated at 37° C. for 1 h. An isotype antibody was taken as a control. After the plate was washed 3 times with PBST buffer (pH 7.4, containing 0.05% Tween-20), a 4000-fold diluted goat anti-human HRP secondary antibody (Invitrogen, #A18805) was added. The plate was incubated away from light at 37° C. for 1 h. After the plate was washed 3 times with PBST buffer (pH 7.4, containing 0.05% Tween-20), TMB (Biopanda, # TMB-S-003) was added at 100 μL/well. The plate was left away from light at room temperature for about 5 min. The reactions were terminated by adding 50 μL of stop buffer (BBI life sciences, #E661006-0200) to each well, and the absorbance values at 450 nm (OD450) were measured using a microplate reader (PerkinElemer, #Enspire). The half maximal effective concentration (EC₅₀) was calculated from the measurement results.

T1 sequence (B0LAJ3 entry or part of it limits assumed): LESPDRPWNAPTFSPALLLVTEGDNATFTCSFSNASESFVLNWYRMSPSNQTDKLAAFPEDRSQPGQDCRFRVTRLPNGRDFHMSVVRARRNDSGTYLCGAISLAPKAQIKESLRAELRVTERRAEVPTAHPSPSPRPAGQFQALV

B1: PR002481 (antibody, human IgG1, V domains shown)
VH: EVQLVETGGGLIQPGGSLRLSCAASGFNVSSHYMSWVRQAPGKGREWVSIIDGGGSTYYADSVKGRFTISRDNSKNRLYLQMNSLRAEDTAMYYCARATAVAEKNGYNYPFNYWGQGTLVTVSS
notes: Heavy-chain-only antibody (HCAb), human IgG1 Fc; two heavy chains, no light chain; also called R4004P556D1; anti-PD1 R4004P556D1 HCAb hG1
What does the source list for B1?
EC50 [1]: 0.031 nM; OD Maximum [1]: 3.06; EC50 [2]: 1.24 nM; EC50 [3]: 0.043 nM; OD Maximum [3]: 2.85
